In the nanobody polyreactivity screen of Harvey et al. (2022):

Assay: yeast display, Sf9 membrane polyspecificity reagent, FACS + sequencing; frameworks hold sequencing errors
Summary of the method: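 In a synthetic yeast display library (Saccharomyces cerevisiae BJ5465), nanobody expression was induced with galactose for 36–48 hours. FACS gates were set low and high (top ~1%) using anti-HA fluorescence for expression and streptavidin fluorescence for binding of the Sf9 membrane reagent. Each polyreactivity label is drawn from the gate of origin.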

| Sequence | polyreactivity (PSR sort gate) |
| --- | --- |
| QVQLVESGGCLVQAGGSLRLSCAASGRIIYSNGMGWYRQAPGKERELVAAISSGGSTYYADSVKGRFTISRDNAKNTVYLQMNSLKPEDTAVYYCNKDYLLRHYYIYVIEGDYWGQGTQVTVSS | low polyreactivity |
| QVQLVESGGGLVQAGGSLRLSCAASGSIFLGYAMGWYRQAPGKERELVAAISWTGGSTYYADSVKGRFTISRDNAKNTVYLQMNSLTPEDTAVYYCAAEDQYGFDYWGQGTQVTVYS | high polyreactivity |
| KVQLVESGGGLVQAGGSLRISCAASGSIFGYYTMGWYRQAPGKERELVARITRGGSTYYADSVKGRFTISRDNAKNTVYLHMNSLKPEDTAVYFCNADSRYRYEYWGLGTQVTVSS | low polyreactivity |
| QVQLVESGGGLVQAGGSLRLSCAASGYIFWENAMGWYRQAPGKERELVAAITVSGGGTYYADSVKGRFTISRDNAKNSVYLQMNSLKPEVTAVYYCNVYDKAPAYDYWGQGTQVTVSS | low polyreactivity |
| QVQLVESGGGLVQAGGSLRLSCAASGIIFGGYAMGWYRQAPGKERELVARITSGGSTNYADSVKGRFTISRDNAKNTVYLQMNSLKPEDTAVYYCNARGGWSWRFYYWGQGTQVTVSS | high polyreactivity |
| QVQLVESGGGLVQAGGSLRLSCAASGFIFWENGMGWYRQAPGKERELVAAISSGVGRTYYADSVKGRFTISRDNAKNTVYLQMNSLKPEDTAVYYCNRARYYREFDYWGQGTQVTVSS | high polyreactivity |
| QVQLVESGGGLVQAGGSLRLSCAASGRIFGHYAMGWYRQAPGKERELVAAISQSGTNTYYADSVKGRFTISRDNAKNTVYLQMNSLKPEDTAVYYCAAKPPRRYQLMDYWGQGTKVTVSS | high polyreactivity |
| QVQLVESGGGLVQAGGSLRLSCAASGFIFYRYAMGRYRQAPGKERELVAAISWYGGTTYYADSVKGRFTISRDNAKNTVYLQMNSLKPEDTAVYYCAASRLRTEYYWGQGTQVTVSS | high polyreactivity |
| QVQLVESGGGLVQAGCSLRLSCAASGRIFWVNAMGWYRQAPGKERELVAVISSGGSTHYADSVKGRFTISRDNAKYTVSLQMNSLKPEDTAGYYCAADRYYVGYYYWGQGTQVTVSS | low polyreactivity |
| QVQLVESGGGLVQAGGSLRLSCAASGLTFNVYAMGWYRQAPGKERELVAAITRSTGRTYYADSVKGRFTISRDNAKNTVYLQMNSLIPEDTAVYYCNRVSRQYYYQRGFEYDYWGQGTQVTVSS | high polyreactivity |
| QVQLVESGGGLVQAGGSLRLSCAASGRTFRIYAMGWYRQAPGKEREFVAAITWSGGRTYYADSVKGRFTISRDNAKNTVYLQMNSLKPEDTAVYYCAADPTYLRTLRFGSYDYWGQGTQVTVSS | high polyreactivity |
| QVQLVESGGGLVQAGGSLRLSCAASGRTFAYNDMGWYRQAPGKERELGAAISWSDGTTYYADSVKGRFTISRDNAKNTVYLQMYSLKPEDTAVYYCNADDYLTSIYRYDYWGQGTQVTVSS | low polyreactivity |
| QVQQQESGGGLVQAGGSLRLSCAASGTIFQLTVMGRYRQAPGKERELVASIDYGGNTNYADSVKGRFTISRDNAKNTVYLQMNSLKPEDTAVYYCAASSDSWTTHPYWGQGTQGTVSS | low polyreactivity |
| QVQLVESGGGLVQAGGSLRLSCAASGSIFASNAMGWYSPAPGKERELVAAINSGDSTNYADSVKGRFTISRDNAKNTVYLQMNSLKPEDTAVYYCARGLEERYDYWGQGTQVTVSS | low polyreactivity |
| QVQLVESGGGLVQAGGSLRLSCAASGRIFGRYAMGRYRRAPGKESEFVAAIDGGGGRTYADSVKGRFTISRDNAKNTVYLQMNSLKPEDTAVYYCNAYVYSIHWGDLYWSEYDYWGQGTQVTVSS | high polyreactivity |
| QVQLVESGGGLVQAGGSLRLSCAASGITFADNARGWYRQAPGKERELVASISNSSGSTYYADSVKGRFTISRDNAKNTVYLQMNSLKPEDTAVYYCATDPYVRRSPSWYDYWGQGTQVTVSS | low polyreactivity |
| QVQLVESGGGLVQAGGSLRLSCAASGSTLQVYAMGWYREAPGKERELVAAISKSGGRTYYADSVKGRFSISRDNAKNTFYLQMNSLKPEDTAVYYCAADVGTAQSTYGYWGQGTQVTVSS | high polyreactivity |
| QVQLVESGGGLVQAGGSLRLSCAASGFTFGRYAMGWYRQAPGKERELVATITRSGVNTYYADSVKGRFTISRDNAKNTVYLQMNSLKPEDTAVYYCAAVEIWYWGFTQYEYWGQGTQVTVSS | high polyreactivity |
| QVQLVESGGGLVQAGGSLRLSCAASGFTFFVYAMGWYRQAPGKERELVATINWSGASTYYADSVKGRFTISRDNAKNTVYLQMKSLKPEDTAVYYCAKDGHYPLVYLAFDYWGQGTQVTVSS | low polyreactivity |
| QVQLVESGGGLVQAGGSLRLSCAASGLSFSGNVMGWYRQAPGKERELVAAIDRSGGSTYYADSVKGRFTISRDNAQKTVYLQMNSLKPEDTAVYYCAVSSYPNHSRSWDDYWGQGTQVTVSS | low polyreactivity |
| QVQLVESGGGLVQAGGSLRLSCDASGFIFTGNVMGWYRQAPGKERELVAGITYTSGSTYYADSVKGRFTISRDYAKNTVYLQMNSLKPEDTAVYYCAAEITRHYVFGDDYWGQGTQVTVSS | low polyreactivity |
| QVQLVESGGGLVQAGGSLRLSCAASGSILHPNGMGWYRQAPGKERELVAAITINGDSTYYADSVKGRFTISRDNAKNTVYLQMNSLKPEDTAVYYFAVDGWPTGWYYYWGQGTQVTVSS | low polyreactivity |

| Sequence | polyreactivity (PSR sort gate) |
| --- | --- |
| QVQLVESGGGLVQAGGSLRLSCAASGSIFTVYAMGWYRQAPGKESELVASIRFSSGRTYYADSVKGRFTISRDNAKNTVYLQMNSLKQEDTAVYYCASETVSWYRYYYWGQGTQVTVSS | high polyreactivity |
| QVQLVESGGGLVQAGGSLRLSCAASGYIITSNAMGWYRQAPGKERELVAAITYSDGSTYYADSVKGRFTISRDNAKNTVYLQMNSLIPEDTAVYYCAVDRDYNVAVLRDLDYWGQGTQVTVSS | low polyreactivity |
| QVQLVESGGALVQAGGSLRLSCAASGSTFAYNAMGWYRQAPVKERELVAAITWNGGDTYYADSVKGRFTISRDNAKNTVYLQMNSLKPEDTAVYYCAAEDTYYRDSDYWGQGTQVTVSS | low polyreactivity |
| QVQLVESGGGIVQAGGSLRLSCAASGRTYPGYAMGWYRQAPGKERELVATITFSDGSTYYADSVKGRFTISRDNAKNTVYLQMNSLKPVDTAVYYCNARRSYFLRYGVNYWGQGTQVTVSS | low polyreactivity |
| QVQLVESGGGLVQAGGSLRLSCAASGYTFTGYALGWYRQAPGKERELVAAITSIGGSTYYADSVKGRFTISRDNAKNTVYLQMNSLKPEDTAVYYCAAEGDYVYDMDYWGQGTQVTVSS | low polyreactivity |
| QVQLVESGGGLVQAGGSLRLSCAASGSIFRVNTMGWYRQAPGKERELVAGITSRGGSTYYADSVKGRFTISRDNAKNTVYLQMNSLKPEDTAFYYCANRAYGTALYRGYGYWGQGTQVPVSS | low polyreactivity |
| QVQLVESRGVLDQARGSLRLSCAATGSIFKPYAMGWYRQEPGKEMELVAAISGIGGSTYYADSVKGRFTIARDNAKNTVYLQMNSLKPEVTAVYYCAALTGFYNLRPYGYWGQGTQVTVSS | high polyreactivity |
| QVQLVESGGGLVQAGGSLRLSCAASGYTFLYYAMGWYRQAPGKEREFVAAISRSGGSTYYADSVKGRFTISRDNAKNTVYLQMNSLKPEDTAVYYCAKDHPSGRQYDYWGQGTQVTVSS | high polyreactivity |
| QVQLVESGGGLVQAGGSLRLSCAASGRIFSGYAIGWYRQAPGKERELVAAITSGGSTNYADSVKGRFTISRDNAKNTVYLQMNSLKPEDTAVYYCAADYREVSTTAYYYWGQGTQVTVSS | low polyreactivity |
| QVQLVESGGGLVHAGGSLRLSCASSGIIFDYYAMAWYRQAPGKERELVASITGTTGSTYYADSVKGRFTISRDNAKINVYLQMNSLKPEDTAVYYCNVDTPYGGLVTMDYWGQGTQVTVSS | low polyreactivity |
| QVQLVESGGGLVQAGGSLRLSCAASGSIFYINAMGCYRQAPGKEREMVAAITSDGSTYYADSVKGRFTISRDNAKNTVYLQMNSLNPEDTAVYYCAADLTSDQYMYYWYWFYSWGQGTQVPVSS | low polyreactivity |
| QVQLVESGGGLVQAGGSLRLSCAASGRTFFRYARGGYRQAPGKERELVAAISVSGASTNYADSVKGRFTISRDNAKNTGYLQMNSQKPEDTAVYYCAARVADYDGVPLYRHGDYWGPGTQVTVSS | low polyreactivity |
| QVQLVESGGGLVQAGGSLRLSCAASGFIFRTYAMGWYRQEPGKERELVAAITYSAGSTYYADSVKGRFTISRDNAKNTVYLQMNSLKPEDTADYYCNVRKTWYGYSVTGRYDYWGQGTQVTVSS | low polyreactivity |
| QVQLVESGGGLDQAGGSLRLSCAASGRTFARYDMGWYRQATGKERELVAGINGDGGSTNYADSVKGRFTISRDNSKNTVYLQMNSLKPEDTAVYYCNVDQEDRKLHVSIKQLSDHWGQGTQVTVSS | low polyreactivity |
| QVQLVESGGGLVQAGGSLRLSCAASGLTFLIYAMGWYIQAPRKERELVASITGRGGSTYYADSVKGRFTISRDNAKNTVYLQMNCLKPEDTAVYYCAASLRYYGLEMDYWGQGTQVTVSS | high polyreactivity |
| QVQLVDSGGGLVQAGGSLRLSCAASGFTFRYYAMGWYRKAPGNERELVAGISWSGSRTYYADSVKGRFTISRDNAKNTVYLQMNSLKPEDTAVYFCAKVNSYGPVPDRYDYWGQGTQVTVSS | high polyreactivity |
| QVQLVESGGGLVQAGGSLRLSCAATGSTFFIYAMGWYRQAPGKERELVAAISGSGGTTYYADSVKGRFTISRDNAKNTVYLHMNSLKPEDTAVYYGAARTFSAFWRGGYDYWGQGTQVTVSS | low polyreactivity |
| QVQLVESGGGLVQAGGSLRLSCAASGFIFLPYVMGWYRQAPGKERELVAAISGGGGITYYADSVKGRFTISRDNAKNTVYLQMNSLKPEDTAVYYCAADDLHWLNSKRYSGRDYWGQGTQVTVSS | low polyreactivity |
| QGQLVESGGGLVQAGGSLRLSCPASGNTFKYYAMGWYRQAPGKEWELVAAISYSGGSTYYADSVKGRFTISRDNAKNTVYLQMNSLKPEDTAVYYCAADPTNSYLEYDEWGQGTQVTVSS | low polyreactivity |
| QVQLVESGGGLVQAGGSLRISCAASGRIFYFNGMGWYRQAPGKERELVAAITSGGSTYYADSVKGRFTISRDNAKNTVYLQMNSLKPEDTAVYYCAAQNAWWSNGRSYDYWGQGTQVTVSS | low polyreactivity |
| QVQLVESGGGLVQAGGSLRLSCAASGSIYGLNAMGWYRQAPGKESELVAAITWSGGSSTYYADSVKGRFTISRDNAKNTVYLQMNSLKPVDTAVYYCAAGRVFIPYYFRFYYWGQGTQVSVSS | high polyreactivity |
